# Laboratory results as given in the RNAGym collection of RNA variant scans (doi:10.1073/pnas.2313332121).
# B1: TPR t1 (parent)
# chain: GACCAAUCUGCCCUCAGAGCUCGAGAACAUCUUCGGAUGCAGAGGAGGCAGGCUUCGGUGGCGCGAUAGCGCCAACGUCCUCAACCUCCAAUGCAUCCCACCACAUGAUGAUGCCUGAAGAGCCUUGGUUUUUUG
# Variants of: B1
# Assay: polymerase ribozyme fitness, log enrichment relative to wild type (log ratio); higher = more active; in vitro selection for triplet polymerase activity
# Summary of the method: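 A single round of triplicate in vitro selection, including frozen incubation at −7 °C, was applied to PCR-built, transcribed mutant libraries of each subunit of a heterodimeric triplet polymerase ribozyme. Illumina sequencing of input and output libraries retained genotypes with ≥10 input reads and ≥1 read per output. Fitness is the base-2 logarithm of genotype enrichment divided by wild-type enrichment, from inverse-variance-weighted replicate averages.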
row,Variant,polymerase ribozyme fitness (log ratio)
1,G51A G117C,-5.64
2,G52A U87C C99U,-3.97
3,C124A U130A,1.09
4,U14G G45C C94A C123U,-3.17
5,A37G G42A G61A,-1.68
6,G36C C72G C102A,-4.94
7,A2G C4G C8G G47U U54C,-3.05
8,U54G G69U G117U,-3.75
9,G52U C56A A66U C102A,-6.29
10,G65U C72A C88G C124A,-5.79
11,C12U G42U C73A U112A G135C,-0.178
12,G10U G77U U78G C114A,-2.65
13,A37C G122U,-0.263
14,C8A C49A G71U C86A G122A,-0.666
15,C70U U87C U116A A121C,-2.16
16,A46U G48A C104U,-1.94
17,G63U U106C,-1.92
18,G63C A90G G93U A118G,-1.31
19,U33G G52C C56A G61A C79U A91G C123G U131G,-7.1
20,U59C C89A A95C G113C,-4.48
21,A2G G69A C89G G110U,-6

row,Variant,polymerase ribozyme fitness (log ratio)
1,C12A G51U G71U U133C,-4.34
2,A6U C22U G51A,-5.76
3,A43G U112C G122U,-0.183
4,C53U G69U C88G G110C C115A A121C C124G,-2.79
5,C79A A83U,-3.6
6,G48U C94G,-1.44
7,A75C,-0.585
8,G19A G60C A75U A90C C98U C114A,-3.78
9,C12G G93A,-0.233
10,C101A G110A,-2.55
11,G71U C73G A90U C114U,-7.06
12,G60A C99U G110U U130A,-5.82
13,A18U G57U C94G U112G,-5.68
14,G44C G47U,-1.8
15,G57A C94U,-2.53
16,G71A C99G A100C C123A,-8.12
17,U7C A18U C53U G60U G61U,-4.77
18,C28G G110A G128U,-2.89
19,G77C U87A G93C A105U C115A,-5.31
20,G19A C85U,-3.47
21,C28G G63U,-4.26

row,Variant,polymerase ribozyme fitness (log ratio)
1,A5U A46U G47C A50G C53U C86A C115G,-5.37
2,C40A G71A,-2
3,C73A U109C,-2.34
4,C15G G25U A37U G69U G120C,-7.24
5,C12U C20G A43C G48A,-5.39
6,C11A C20U G42C C53U,-4.13
7,A46C C101G G120A,-2
8,U59A C70U U87A,-1.83
9,C73A G127U,-0.602
10,C12G C15U C31A G44A G47A G63C A84U G110C,-6.78
11,A41G C104U,0.737
12,A16U G71U,-0.858
13,C8A U21A C34G C70A U109G,-5.88
14,C13A C56U C80A,-2.82
15,G17A G63A C82U,-5.43
16,A6C A29U G52U C53U G63U G120A C123U,-3.79
17,A26U A43U A121U,-4.81
18,C8A A41U C49U,-1.56
19,A6U C8A U129A,-1.48
20,C31U C72U U112A,-3.81
21,G48U U55C,-1.53

row,Variant,polymerase ribozyme fitness (log ratio)
1,A5G G45A C104A,-2.92
2,U21A A50U C73U C76G C89A,-4.66
3,A43G C102A,-4.25
4,C73U G113A G117A,-6.9
5,U116G,-1.95
6,U7A C11A C101U G122U,0.139
7,G10U G48A G93A C114G,-5.11
8,C8G A90G G113U G117A G127A,-6.12
9,G10C U38G G42C A121U,-1.8
10,G19U A37U,-3.17
11,C15U C72A C73A U81A A84G,-4.77
12,G52A C86G,-0.287
13,A5U G63C C85A C101A A118U,-2.94
14,U9G G10A U14G A46G G48A A66G C70U,-4.44
15,G45C A46U,-2.34
16,A29U G69U G120U,-0.561
17,A5C C56A,-0.668
18,C72A A91C G127A,-2.21
19,C8A C101U G117U,-0.423
20,A24G A111G G122U,-5
